Test results published in the domain aggregation screens of Martell et al. (2025).

Assay: soluble fraction after stress (log2 fold change); higher = more stays soluble; pooled small domains, quantitative proteomics
Conditions: stress: pH 4
Method in brief: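 Aggregation propensity is estimated from the fold change in each domain's soluble amount after acid stress. Pooled small-domain libraries were stressed at pH 4, and higher log2 values mean more stayed soluble.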
In the case of “HMSAMSPTEVGERLRLAREAVRMTQKQAADAISVARTTLVAIEQGQRRVRIDELQQLAKTYGVSVNAILR”, the “soluble fraction (log2)” value is reported as 0.27. With “HMKHVDLDNNERYIYGIIGSTKIHVDEVVEKSGMETKHVMAILTNLELKEAIKGIPGGFYLR” the “soluble fraction (log2)” value was -1.19. In the case of “HMVTPAQQARDTLLGALVGLARATTSEPKTDDTDVVLNAGLRLAAQPDAPEERLQRMLAIVQTEKHRV”, the “soluble fraction (log2)” value is reported as 0.215. For “HMKTGHLPVTVIIDGRIISDNLYKTGLSNNWLADQLRKNSIKSSEDVFFAYLNPERKFIYQLRSNS”, the “soluble fraction (log2)” value was -0.098. For “HMKPGYVIQVNGTVTKIQSGLVYVKTPAAQYTLMRKYAPADAAVGDRVSLWINEEGMVIDVHGK”, the “soluble fraction (log2)” value was -0.671. For “HMRMRPNERQKRIIELLSFRRHETIGNFANEFGVSRDTIKRDIITLQEEYPIISERGYEGGISLPDGYYI”, the “soluble fraction (log2)” value was -0.0594. In the case of “HMGSEEMLGALGVVERATDDGDWWIAVHGEHWRARSAQALVPGDRVRVARIDGLTLTVTPIA”, the “soluble fraction (log2)” value is reported as 0.0708. In the case of “HMETVRHFRLDWSQAADRLDKVLASLMNDVSRARIQEWIRLGAVSVNGEILTDVRAKVAGGDAIDVTPQTA”, the “soluble fraction (log2)” value is reported as -0.0931. With “HMGMGDALRILFNQAMLIEREQYLQAGAYERNENPVNYANGFKAKTLNTRVGALEVAVPQTRDSAFYPSFL” the “soluble fraction (log2)” value was -0.163. With “HMPLPFSPVMFVGTKSGAQTDLDGNYKIETYYSSDSLKVVVLGYAPLAKKVKQGTTSVVNFELSAAS” the “soluble fraction (log2)” value was 0.104. With “HMDAPLIIAETRVDVPDATVSDAVMMLDLRNTNALLFKNSGSGVLNMVYRRGDGTIGWGEPQ” the “soluble fraction (log2)” value was -0.543. With “HMEAGTVTVTHAAVYIRSGPGVSYPIAGKAAKNDTYTVLQKDGDWFQIRLPQGNTGWIAGWLVETGT” the “soluble fraction (log2)” value was -0.133. With “HMDPEQLKIAINTKMPFGKYSGRPLLLLPEPYLVWFKQQGFPDSKLGSQLAMMYEVKLNGLEQMLMPLL” the “soluble fraction (log2)” value was -0.506. In the case of “HMELNESVLKALYEKFREMSGSKGFITEDEVIIQLEKENPDITPDQQAEIFKYLYDTPLQIY”, the “soluble fraction (log2)” value is reported as -0.996. In the case of “HMGEQETILKGDVNRDGVVDVNDVTHLQIHISNDDKNPLIDVTNKAWFDAADMYGDGKLDILDATALQIYI”, the “soluble fraction (log2)” value is reported as -0.145. With “HMDAVTPVLSRIRDARFKRMVLPGDEIEISVTLIDTIGKFFNLSGQIRNKDKISLTVNFALALV” the “soluble fraction (log2)” value was 0.0905. With “HMESEIYKKIEKSRLLELAFTKSQKGDLTGAYDLYYQAFTKYDVIADNQNRYFEDFISLIRRKQQQD” the “soluble fraction (log2)” value was -0.822. For “HMAQMDDPEMVLHIYNKMIQQRLFDTAVGYSYLKDLQEYLQSIPFIRKEDIFPIPVQHPQVEESLRKAK”, the “soluble fraction (log2)” value was 0.0635. In the case of “HMERDIATKHEVNRTVEAYSDIVKTLNLPSHKINLVEISFFNILKRSKPSPRENSILLGLAQKIKLHLEKK”, the “soluble fraction (log2)” value is reported as -0.473. With “HMIAVLEEGSRFRAINDISGKPFGPEMIIKNGQVIAAGKKILTKPKKLIGKKEGTKFNISGKEYVIKDI” the “soluble fraction (log2)” value was -0.834. With “HMSEEVDVPDLVGMQLEEAEKSLEPLGLKLKIAKEIPNSEFEKGKIVDQKTKAGEKVKTGYTIEVTVSSG” the “soluble fraction (log2)” value was -0.0107. For “HMIDLPEAFIQQLKEAVDVGDVTGLRELLGQLRRRYPQQSALSDEAERLLREFDFERLAQLFEGLD”, the “soluble fraction (log2)” value was -1.54. For “HMVAEKSKIEMAIDSINKLAKELADSGVAKKTISDIIKSVSGSANYNKITDFEVATDVYKELVALKNKEDT”, the “soluble fraction (log2)” value was -0.224. For “HMNIVVSSIDSNSFEIVNKETGEQAVISYDKETKKGFVLINGVKKEFFQDGNKVYYDGYVIAE”, the “soluble fraction (log2)” value was -0.466. In the case of “HMKVLFLESIEGSASMGEIKDVANGYARNFLFPNGFAVPATPKNLKNVEELQAKELEIQTERDNWAA”, the “soluble fraction (log2)” value is reported as -0.713. In the case of “HMSYQADEIKEKLIDILQNQKTGLSGLEISERIGINRITMTKYLQVFAAEGFIKQKNIGNVIIWFIEDGTE”, the “soluble fraction (log2)” value is reported as -0.8. For “HMSDPEAFIRQTVAAAEPEGIALSVLGKRVRGKFRTFKLRDLGYAQFRPYLGDLDGIKVEQRDGQSYARLD”, the “soluble fraction (log2)” value was 0.045. For “HMETIGENIKTYRQKKGYTQEEVANRLHVTRQTISKWEKNYSIPDAEVLVKLADVLEVQTSQLLGV”, the “soluble fraction (log2)” value was at least 0.43. For “HMGLQDLFLNSLRKSKTPVTMFLVKGVKLQGVVTWFDNFSVLLRRDGMSQLVYKHSISTIMP”, the “soluble fraction (log2)” value was 0.22. In the case of “HMKMTIEDLITQAKESNAAENYYEAFQLYSKAIDVLPNDPDLYSARGVVLFHLDRKEDSLIDMNKSVD”, the “soluble fraction (log2)” value is reported as -0.879.
